Data set [1] has as its target Zur (zinc uptake regulator) of Streptomyces coelicolor (Streptomyces coelicolor). In words: native gel or EMSA; EMSA of purified Zur (0-90 nM) on 32P-labelled znuA and zitB DNA probes (25, 33, 46, 114 bp) with 0-20 uM ZnSO4; 20 mM Tris-HCl pH 7.8, 50 mM KCl, 1 mM DTT, room temperature; the number of Zur chains in each shifted band was estimated from mobility on native PAGE at different acrylamide percentages; Zur oligomers seen only on DNA.

Data set [2] concerns Zur (zinc uptake regulator) (Streptomyces coelicolor A3(2) M145?). In words: EMSA. The settings on record: 5 uM ZnSO4; 20 mM Tris-HCl pH 7.8, 50 mM KCl, 1 mM DTT, 0.1 mg/ml BSA, 5% glycerol, 0.1 ug poly(dI-dC) per 20 ul, 0-20 uM ZnSO4, room temperature 20 min; gel 5% PAGE in TB …. In general terms: In EMSA bound probe runs differently from free probe, usually more slowly.

For orientation: stoichiometry N means the number of molecules, sites or subunits per partner or assembly. “Zur (zinc uptake regulator) of Streptomyces coelicolor (natural protein)”: the stoichiometry N in data set [1] was 2.

A word on the Kd: it is the concentration at which binding is half-saturated. A lower Kd goes with higher affinity. Take “GCACATGACAACGGTGTTCAGTGCC (double strand) [zitB 25 bp Zur-box probe (-63 to -39)]”: in data set [2], the Kd was found to be 19.3 nM.

Values taken from article PMC5472717.
